Measured values from article PMC9352680, “A comprehensive thermodynamic model for RNA binding by the Saccharomyces cerevisiae Pumilio protein PUF4”.
Where a chain is given by its changes, count along the chain named. Numbers in names are those of the source.

T1: PUF4 RNA-binding domain (Saccharomyces cerevisiae, UniProt P25339 537-888)
T1 sequence: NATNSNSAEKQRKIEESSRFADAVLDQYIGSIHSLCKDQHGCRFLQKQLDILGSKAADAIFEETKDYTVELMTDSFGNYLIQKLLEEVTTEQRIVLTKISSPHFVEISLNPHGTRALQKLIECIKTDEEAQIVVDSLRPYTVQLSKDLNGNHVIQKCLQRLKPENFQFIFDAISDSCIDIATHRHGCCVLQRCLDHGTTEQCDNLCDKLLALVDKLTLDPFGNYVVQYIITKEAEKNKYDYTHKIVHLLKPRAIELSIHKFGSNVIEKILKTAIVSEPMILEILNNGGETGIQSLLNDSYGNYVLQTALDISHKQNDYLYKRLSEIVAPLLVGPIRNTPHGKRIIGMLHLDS

B1: Id_ii_S2_P5E.2_K5.1_C5.2_[C-2T]_[T-1A]_H5.1_A5.1_F5.1_T5.2_[T11A] (ssRNA)
RNA: UUUGAUUAAUAUGAUAUCGUUCUUUCUUAUGUAUUAUUAAAUUCUUUCUCGAUAUCAUAUUAAUCUUU
B2: Id_ii_S2_P5E.2_K5.1_C5.2_[T-1A]_H5.1_A5.1_F5.1_T5.2_[T11A]_[A12C] (ssRNA)
RNA: B1 RNA with U28C, A41C
B3: Id_ii_S2_P5E.2_K5.1_C5.2_H5.1_A5.1_F5.1_T5.2_[A12T] (ssRNA)
RNA: B1 RNA with U28C, A29U, A40U, A41U
B4: Id_ii_S2_P5E.2_K5.1_C5.2_[T-1G]_H5.1_A5.1_F5.1_T5.2_[T11G]_[A12C] (ssRNA)
RNA: B1 RNA with U28C, A29G, A40G, A41C
B5: Id_ii_S2_P5E.2_K5.1_C5.2_[C-2A]_[T-1A]_H5.1_A5.1_F5.1_T5.2_[T11A]_[A12C] (ssRNA)
RNA: B1 RNA with U28A, A41C
B6: Id_ii_S2_P5E.2_K5.1_C5.2_[C-2T]_[T-1A]_H5.1_A5.1_F5.1_T5.2_[A12T] (ssRNA)
RNA: B1 RNA with A40U, A41U
B7: Id_ii_S2_P5E.2_K5.1_C5.2_[T-1G]_H5.1_A5.1_F5.1_T5.2_[T11G]_[A12T] (ssRNA)
RNA: B1 RNA with U28C, A29G, A40G, A41U
B8: Id_ii_S2_P5E.2_K5.1_C5.2_[C-2A]_[T-1C]_H5.1_A5.1_F5.1_T5.2_[T11A]_[A12C] (ssRNA)
RNA: B1 RNA with U28A, A29C, A41C
B9: Id_ii_S2_P5E.2_K5.1_C5.2_[T-1G]_H5.1_A5.1_F5.1_T5.2_[T11A]_[A12T] (ssRNA)
RNA: B1 RNA with U28C, A29G, A41U
B10: Id_ii_S2_P5E.3_K5.2_C5.2_[C-2G]_[T-1C]_H5.2_A5.1_F5.1_T5.2_[T11C] (ssRNA)
RNA: B1 RNA with U28G, A29C, G31A, A40C
B11: Id_ii_S2_P5E.2_K5.1_C5.2_[T-1C]_H5.1_A5.1_F5.1_T5.2_[A12T] (ssRNA)
RNA: B1 RNA with U28C, A29C, A40U, A41U
B12: Id_ii_S2_P5E.2_K5.1_C5.2_[C-2A]_H5.1_A5.1_F5.1_T5.2_[T11A]_[A12C] (ssRNA)
RNA: B1 RNA with U28A, A29U, A41C
B13: Id_ii_S2_P5E.2_K5.1_C5.2_[T-1A]_H5.1_A5.1_F5.1_T5.2_[A12C] (ssRNA)
RNA: B1 RNA with U28C, A40U, A41C
B14: Id_ii_S2_P5E.2_K5.1_C5.2_H5.1_A5.1_F5.1_T5.2_[T11A]_[A12C] (ssRNA)
RNA: B1 RNA with U28C, A29U, A41C
B15: Id_ii_S2_P5E.2_K5.1_C5.2_[C-2T]_[T-1A]_H5.1_A5.1_F5.1_T5.2_[A12C] (ssRNA)
RNA: B1 RNA with A40U, A41C
B16: Id_ii_S2_P5E.2_K5.1_C5.2_[T-1C]_H5.1_A5.1_F5.1_T5.2_[T11A]_[A12G] (ssRNA)
RNA: B1 RNA with U28C, A29C, A41G
B17: Id_ii_S2_P5E.2_K5.1_C5.2_[T-1A]_H5.1_A5.1_F5.1_T5.2_[T11G]_[A12C] (ssRNA)
RNA: B1 RNA with U28C, A40G, A41C
B18: Id_ii_S2_P5E.2_K5.1_C5.2_H5.1_A5.1_F5.1_T5.2_[T11A]_[A12T] (ssRNA)
RNA: B1 RNA with U28C, A29U, A41U
B19: Id_ii_S2_P5E.2_K5.1_C5.2_[T-1A]_H5.1_A5.1_F5.1_T5.2_[T11A]_[A12G] (ssRNA)
RNA: B1 RNA with U28C, A41G
B20: Id_ii_S2_P5E.2_K5.1_C5.2_[C-2T]_H5.1_A5.1_F5.1_T5.2_[A12T] (ssRNA)
RNA: B1 RNA with A29U, A40U, A41U
B21: Id_ii_S2_P5E.3_K5.2_C5.2_[C-2G]_[T-1C]_H5.2_A5.1_F5.1_T5.2_[T11C]_[A12T] (ssRNA)
RNA: B1 RNA with U28G, A29C, G31A, A40C, A41U
B22: Id_ii_S2_P5E.3_K5.2_C5.2_[C-2G]_[T-1C]_H5.2_A5.1_F5.1_T5.2_[T11C]_[A12C] (ssRNA)
RNA: B1 RNA with U28G, A29C, G31A, A40C, A41C
B23: Id_ii_S2_P5E.2_K5.1_C5.2_[C-2A]_[T-1A]_H5.1_A5.1_F5.1_T5.2_[A12C] (ssRNA)
RNA: B1 RNA with U28A, A40U, A41C
B24: Id_ii_S2_P5E.2_K5.1_C5.2_[T-1A]_H5.1_A5.1_F5.1_T5.2_[T11A]_[A12T] (ssRNA)
RNA: B1 RNA with U28C, A41U
B25: Id_ii_S2_P5E.2_K5.1_C5.2_[T-1A]_H5.1_A5.1_F5.1_T5.2_[T11G]_[A12T] (ssRNA)
RNA: B1 RNA with U28C, A40G, A41U
B26: Id_ii_S2_P5E.2_K5.1_C5.2_[T-1C]_H5.1_A5.1_F5.1_T5.2_[A12G] (ssRNA)
RNA: B1 RNA with U28C, A29C, A40U, A41G
B27: Id_ii_S2_P5E.2_K5.1_C5.2_[C-2A]_[T-1C]_H5.1_A5.1_F5.1_T5.2_[A12C] (ssRNA)
RNA: B1 RNA with U28A, A29C, A40U, A41C
B28: Id_ii_S2_P5E.2_K5.1_C5.2_[C-2T]_H5.1_A5.1_F5.1_T5.2_[T11A] (ssRNA)
RNA: B1 RNA with A29U
B29: Id_ii_S2_P5E.2_K5.1_C5.2_[C-2A]_H5.1_A5.1_F5.1_T5.2_[A12C] (ssRNA)
RNA: B1 RNA with U28A, A29U, A40U, A41C

Target: T1, PUF4 RNA-binding domain
Assay: Mg; RNA-MaP; 20 mM Na-HEPES pH 7.4, 30 mM KOAc, 0.75 mM MgCl2, 0.1% Tween-20, 5% glycerol, 0.1 mg/mL BSA, 2 mM DTT; 25 C; 0.0125-409.6 nM protein
Conditions: tags: N-His6-TEV cleaved; C-SNAP kept, Cy3B-labelled; label: tethered on chip by stalled RNA polymerase

Row | Binder | Kd
1 | B1 | 12.2 nM
2 | B2 | 4.53 nM
3 | B3 | 1.19 nM
4 | B4 | 2.28 nM
5 | B5 | 19 nM
6 | B6 | 2.85 nM
7 | B7 | 1.86 nM
8 | B8 | 5.62 nM
9 | B9 | 2.03 nM
10 | B10 | 546 nM
11 | B11 | 0.992 nM
12 | B12 | 6.07 nM
13 | B13 | 2.97 nM
14 | B14 | 4.41 nM
15 | B15 | 4.16 nM
16 | B16 | 9.77 nM
17 | B17 | 2.55 nM
18 | B18 | 1.79 nM
19 | B19 | 26.7 nM
20 | B20 | 1.44 nM
21 | B21 | 161 nM
22 | B22 | 133 nM
23 | B23 | 9.68 nM
24 | B24 | 4.3 nM
25 | B25 | 2.92 nM
26 | B26 | 2.27 nM
27 | B27 | 2.94 nM
28 | B28 | 5.96 nM
29 | B29 | 3.2 nM
